Experimental data as given in patent US10548950B2, “Irisin-related cancer treatments” (STC.UNM, priority 2014, dated 2020).

Columns and labels:
MDA-MB-231 cells [1] = assay: Doxorubicin sensitivity: cell viability (WST-1) with Dox with or without irisin; assay type: cell-based, Human; conditions: 24 hours
Description: Cells were seeded overnight at a density of 5,000 cells/well, treated with or without varying concentrations of IM or INM (from 0.625 nM to 20 nM) (N=12). Cells were then incubated for 1 hour in medium containing 10% WST-1 cell proliferation reagent from Roche (Indianapolis, Ind.) and fluorescence was measured using a Wallac Victor3V 1420 Multilabel Counter from PerkinElmer (Waltham, Mass.). These methods were repeated with varying concentrations (from 0.156 μM to 10 μM) of the antineoplastic Doxorubicin (Dox) from Sigma (St. Louis, Mo.) dissolved in DMSO (using 0.1% for all treatments including control) with 2 nM IM or INM for 24 hours (N=8). At 24 hours, Dox uptake was measured using phase-contrast and fluorescence (N=24). Treatment concentrations and duration were determined empirically through pilot experiments and from previously published observations for Dox.^20

[2] = system: caspase-3/7 activity in MDA-MB-231 cells; assay: Caspase-3/7 activity (kinetic apoptosis reagent, Incucyte ZOOM); assay type: cell-based, Human; conditions: MDA-MB-231, various concentrations, 24 hours
From the text: Cells were co-treated as previously described (N=12) with a kinetic caspase-3/7 apoptosis reagent from Essen Bioscience (Ann Arbor, Mich.). Caspase-3/7 activity was indicated by mean green fluorescence measured by the Incucyte ZOOM as described above.

[3] = system: obesity-related cancer cells; conditions: Moon et al., MTT endpoint assay; cited from earlier work
[4] = system: malignant and non-malignant breast epithelial cell; assay: Cell metabolism (data not shown); assay type: cell-based, Human; conditions: malignant and non-malignant cells
RFP MDA-MB-231 cells = assay: Cell proliferation by automated red object counting (Incucyte ZOOM); assay type: cell-based, Human; conditions: 2 nM, 24 hours, compared with control
Description: (§1) Human non-malignant breast epithelial cells (MCF-10a), malignant breast epithelial cells (MCF-7), and malignant aggressive breast epithelial cells (MDA-MB-231) were purchased from American Type Culture Collection (Manassas, Va.). Cells were maintained under standard conditions (37° C. in a 5% CO2) using growth media as described in Supporting Information Table 1. Cells were treated with either human recombinant non-modified irisin (INM) from Cayman Chemical (Ann Arbor, Mich.) or human recombinant modified and active (glycosylated) irisin (IM) from PlexBio (San Francisco, Calif.) at concentrations ranging from 0.625 nM to 20 nM dissolved in culture media for 24 hours. Concentrations of irisin were determined empirically through pilot experiments based on and previously published observations.^9 MDA-MB-231 cells were labeled with red fluorescent protein (RFP) by lentiviral-transfection using CytoLight Red vector from Essen Bioscience (Ann. Arbor, Mich.). […]
RFP MDA-MB-231 cells were seeded overnight in 96-well plates at a density of 5,000 cells/well and treated with or without irisin at 2 nM (IM or INM) (N=64). Cell proliferation was measured by automated red object counting optimized for MDA-MB-231 cells using the Incucyte ZOOM live content imaging from Essen Bioscience (Ann Arbor, Mich.), measured every hour for 24 hours. […]

[5] = system: NFκB activity in MDA-MB-231 cells; assay: NFκB-GFP reporter system; assay type: cell-based, Human; conditions: MDA-MB-231, 24 hours
Description: Cells were transfected with a NFκB GFP-linked reporter system from Qiagen (Valencia, Calif.) before treatment with IM, INM, or TNF-α from R and D Systems (Minneapolis, Minn.) at various concentrations for 24 hours (N=12). NFκB activity was indicated by mean fluorescence measured by the Incucyte ZOOM as described above.

MCF-10a cells = assay: Cell viability (WST-1) after irisin treatment for 24 hours; assay type: cell-based, Human; conditions: 0.625 nM to 20 nM, 24 hours post treatment
Description: as §1
(§2) Cells were seeded overnight at a density of 5,000 cells/well, treated with or without varying concentrations of IM or INM (from 0.625 nM to 20 nM) (N=12). Cells were then incubated for 1 hour in medium containing 10% WST-1 cell proliferation reagent from Roche (Indianapolis, Ind.) and fluorescence was measured using a Wallac Victor3V 1420 Multilabel Counter from PerkinElmer (Waltham, Mass.). […]

MDA-MB-231 cells [6] = assay: as above; assay type: cell-based, Human; conditions: 0.625 nM to 20 nM, compared with control
Description: as §1, §2

COc1cccc2c1C(=O)c1c(O)c3c(c(O)c1C2=O)C[C@@](O)(C(=O)CO)C[C@@H]3O[C@H]1C[C@H](N)[C@H](O)[C@H](C)O1 [Dox, Doxorubicin, reference compound]
Cell viability, Dox treatment alone (MDA-MB-231 cells [1]; MDA-MB-231, Dox 100 nM or 1.0 μM): not | Cell viability, Dox treatment alone (MDA-MB-231 cells [1]; MDA-MB-231, Dox 10 μM): reduced cell viability

TNF-α [reference compound]
Caspase-3/7 activity [2]: significantly elevated

B1: irisin: 112 aa peptide cleaved from FNDC5; term covers both non-modified (INM) and glycosylated (IM) irisin (protein)
chain: DSPSAPVNVTVRHLKANSAVVSWDVLEDEVVIGFAISQQKKDVRMLRFIQEVNTTTRSCALWDLEEDTEGIVHVQAISIQGQSPASEPVLFKTPREAEKMASKNKDEVTMKE
modifications: non-modified irisin
notes: 112 aa peptide cleaved from FNDC5; term covers both non-modified (INM) and glycosylated (IM) irisin
Cell proliferation in obesity-related cancer cells [3]: no significant affect on cell proliferation | Breast epithelial cell metabolism [4]: not significantly altered

B2: IM: human recombinant modified and active (glycosylated) irisin from PlexBio (protein, UniProt Q8NAU1 1-191, looked up)
Irisin: MQAARGGAGRPERPGRPGRGPERERERPPGAGAASPCAAPGLPAGGATIHPGSPSAWPPRARAALRLWLGCVCFALVQADSPSAPVNVTVRHLKANSAVVSWDVLEDEVVIGFAISQQKKDVRMLRFIQEVNTTTRSCALWDLEEDTEYIVHVQAISIQGQSPASEPVLFKTPREAEKMASKNKDEVTMKE
modifications: Irisin glycosylated
Enhancement of Dox killing by irisin (MDA-MB-231 cells [1]; MDA-MB-231, 2 nM irisin with Dox 100 nM to 10 μM): significantly enhanced Dox killing at 1.0 μM | Caspase-3/7 activity [2]: failed to activate caspase-3/7 activity | Cell proliferation of MDA-MB-231 cells (RFP MDA-MB-231 cells): did not alter cell proliferation | NFκB activity [5]: did not alter NFκB activity | Cell viability of MCF-10a cells (MCF-10a cells): decreased at the highest tested dose | Cell viability of MDA-MB-231 cells (MDA-MB-231 cells [6]): unaffected
